These binders were tested against streptavidin, P22629 (assay: SPR, BIAcore X100, streptavidin coupled to the chip, peptide in solution).
Chain of streptavidin, P22629 (P22629 37-163 limits assumed): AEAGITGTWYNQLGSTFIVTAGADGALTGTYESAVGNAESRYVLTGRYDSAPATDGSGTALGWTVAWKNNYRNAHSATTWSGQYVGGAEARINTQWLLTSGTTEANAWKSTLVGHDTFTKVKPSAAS

| Binder | Kd [µM] |
| --- | --- |
| LYDHPQNGGQ (modifications not checked) | 9.4 |
| NQPWQ (modifications not checked) [head-to-tail cyclic NQpWQ peptide] | 61.3 |
| QNDHPQNGGQ (modifications not checked) | 10.8 |
| H-LYDHPQNGGQ-OH | 100 |
| H-QNDHPQNGGQ-OH | 320 |

Source: patent US20180045721A1
